In US20240034757A1 (OXFORD UNIVERSITY INNOVATION, published 2024):
Numbering of substitutions follows the chain as printed. Where two headings read alike, the source gives them in different places.

Key:
P1096_IXORI [1] = molecular target: T1, P1096_IXORI (Ixodes ricinus, UniProt A0A0K8RKE4 24-114); assay: BLI
T1 sequence: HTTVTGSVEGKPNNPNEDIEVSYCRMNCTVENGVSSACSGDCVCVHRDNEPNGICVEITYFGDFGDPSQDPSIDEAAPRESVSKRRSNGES

P1168_IXORI [2] = molecular target: T2, P1168_IXORI (Ixodes ricinus, UniProt A0A0K8RCU3 25-106); assay: BLI
T2 sequence: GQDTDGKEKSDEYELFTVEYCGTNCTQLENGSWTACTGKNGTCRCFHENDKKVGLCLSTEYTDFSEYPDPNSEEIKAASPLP

P1095_IXORI [3] = molecular target: T3, P1095_IXORI (Ixodes ricinus, UniProt A0A0K8RCE3 24-112); assay: BLI
T3 sequence: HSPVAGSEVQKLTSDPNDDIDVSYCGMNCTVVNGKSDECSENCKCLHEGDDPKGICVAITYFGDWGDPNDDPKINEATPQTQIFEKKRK

P1132_IXORI [4] = molecular target: T4, P1132_IXORI (Ixodes ricinus, UniProt V5GZ08 29-106); assay: BLI
T4 sequence: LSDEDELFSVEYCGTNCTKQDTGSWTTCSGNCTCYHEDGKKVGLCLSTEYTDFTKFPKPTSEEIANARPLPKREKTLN

P1134_IXORI [5] = molecular target: T5, P1134_IXORI (Ixodes ricinus, UniProt A0A0K8RAI0 32-135); assay: BLI
T5 sequence: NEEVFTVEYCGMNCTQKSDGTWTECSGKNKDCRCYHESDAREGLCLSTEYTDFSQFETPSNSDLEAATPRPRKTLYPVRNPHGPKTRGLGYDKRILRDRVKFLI

P1080_IXORI [6] = molecular target: T6, P1080_IXORI (Ixodes ricinus, UniProt A0A090XBL6 20-118); assay: BLI
P1127_IXORI [7] = molecular target: T7, P1127_IXORI (Ixodes ricinus, UniProt A0A0K8RJ67 29-108); assay: BLI
T7 sequence: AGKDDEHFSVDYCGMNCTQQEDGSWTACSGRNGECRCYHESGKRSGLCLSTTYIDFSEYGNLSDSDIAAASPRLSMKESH

P1156_IXORI [8] = molecular target: T8, P1156_IXORI (Ixodes ricinus, UniProt V5HBW0 29-108); assay: BLI
T8 sequence: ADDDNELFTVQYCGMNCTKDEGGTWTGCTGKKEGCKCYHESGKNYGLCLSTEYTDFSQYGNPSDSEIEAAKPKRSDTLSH

P1166_IXORI [9] = molecular target: T9, P1166_IXORI (Ixodes ricinus, UniProt A0A0K8RE99 25-110); assay: BLI
T9 sequence: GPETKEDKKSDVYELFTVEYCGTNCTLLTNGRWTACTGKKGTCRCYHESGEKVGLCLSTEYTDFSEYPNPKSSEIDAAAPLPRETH

CCL17_HUMAN = molecular target: T10, CCL17_HUMAN (human, UniProt Q92583 24-94); assay: yeast surface display FACS
T10 sequence: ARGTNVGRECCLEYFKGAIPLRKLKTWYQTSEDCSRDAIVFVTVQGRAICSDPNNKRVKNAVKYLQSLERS

CCL5_HUMAN [10] = molecular target: T11, CCL5_HUMAN (human, UniProt P13501 24-91); assay: yeast surface display FACS
T11 sequence: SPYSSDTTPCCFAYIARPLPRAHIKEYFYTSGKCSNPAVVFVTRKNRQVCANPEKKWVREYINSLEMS

CCL20_HUMAN = CCL20_HUMAN (human, UniProt P78556 27-96); assay: yeast surface display FACS
CCL16_HUMAN = molecular target: T12, CCL16_HUMAN (human, UniProt O15467 24-120); assay: BLI;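 note: biolayer interferometry on an Octet system: chemokines at several doses tested against tick chemokine-binding proteins, association, equilibrium and dissociation curves fitted to derive Kd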
T12 sequence: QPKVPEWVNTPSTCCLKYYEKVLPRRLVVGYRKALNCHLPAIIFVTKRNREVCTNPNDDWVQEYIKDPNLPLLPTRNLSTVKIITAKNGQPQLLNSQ

CCL11_HUMAN = CCL11_HUMAN (human, UniProt P51671 24-97); assay: yeast surface display FACS
CCL18_HUMAN = molecular target: T13, CCL18_HUMAN (human, UniProt P55774 21-89); assay: yeast surface display FACS
T13 sequence: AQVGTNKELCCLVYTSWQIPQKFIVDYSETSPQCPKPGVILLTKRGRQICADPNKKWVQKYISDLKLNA

CCL5_HUMAN [11] = molecular target: T11, CCL5_HUMAN; assay: yeast surface display FACS; remark: listed apart in the source
CXCL12_HUMAN = CXCL12_HUMAN (human, UniProt P48061 22-89); assay: yeast surface display FACS
CXCL8_HUMAN = molecular target: T14, CXCL8_HUMAN (human, UniProt P10145 28-99); assay: yeast surface display FACS
T14 sequence: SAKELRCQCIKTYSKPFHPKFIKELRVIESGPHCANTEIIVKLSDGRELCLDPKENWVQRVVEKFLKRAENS

P1096_IXORI [12] = molecular target: T1, P1096_IXORI; assay: BLI [Cont.]
P1174_IXORI = molecular target: T15, P1174_IXORI (Ixodes ricinus, UniProt V5I3C5 28-104); assay: BLI [Cont.]
T15 sequence: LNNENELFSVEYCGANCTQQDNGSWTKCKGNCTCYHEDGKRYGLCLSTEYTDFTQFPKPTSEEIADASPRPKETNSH

P1128_IXORI = molecular target: T16, P1128_IXORI (Ixodes ricinus, UniProt A0A0K8R6B3 19-90); assay: BLI [Cont.]
T16 sequence: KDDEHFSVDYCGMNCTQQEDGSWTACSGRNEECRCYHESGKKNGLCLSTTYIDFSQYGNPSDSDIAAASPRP

P1168_IXORI [13] = molecular target: T2, P1168_IXORI; assay: BLI [Cont.]
P1172_IXORI = molecular target: T17, P1172_IXORI (Ixodes ricinus, UniProt V5I2G9 24-94); assay: BLI [Cont.]
T17 sequence: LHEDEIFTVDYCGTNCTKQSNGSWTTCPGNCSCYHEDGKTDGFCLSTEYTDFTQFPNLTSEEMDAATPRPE

P1095_IXORI [14] = molecular target: T3, P1095_IXORI; assay: BLI [Cont.]
P1170_IXORI = molecular target: T18, P1170_IXORI (Ixodes ricinus, UniProt A0A0K8RD51 29-102); assay: BLI [Cont.]
T18 sequence: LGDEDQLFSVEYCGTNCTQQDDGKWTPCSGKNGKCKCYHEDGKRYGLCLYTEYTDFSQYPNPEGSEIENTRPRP

P1132_IXORI [15] = molecular target: T4, P1132_IXORI; assay: BLI [Cont.]
P1162_IXORI = molecular target: T19, P1162_IXORI (Ixodes ricinus, UniProt A0A0K8RDJ1 29-99); assay: BLI [Cont.]
T19 sequence: T17 sequence with H2N, E3D, D4E, I6L, K18Q, S20P

P1134_IXORI [16] = molecular target: T5, P1134_IXORI; assay: BLI [Cont.]
P1080_IXORI [17] = molecular target: T6, P1080_IXORI; assay: BLI [Cont.]
P1127_IXORI [18] = molecular target: T7, P1127_IXORI; assay: BLI [Cont.]
P1229_IXORI = molecular target: T20, P1229_IXORI (Ixodes ricinus, UniProt A0A0K8R4R9 32-108); assay: BLI [Cont.]
T20 sequence: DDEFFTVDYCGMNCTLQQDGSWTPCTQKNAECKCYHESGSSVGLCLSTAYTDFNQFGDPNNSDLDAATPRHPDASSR

P1166_IXORI [19] = molecular target: T9, P1166_IXORI; assay: BLI [Cont.]
P1156_IXORI [20] = molecular target: T8, P1156_IXORI; assay: BLI [Cont.) C]

Chain of CCL20_HUMAN (P78556 27-96 limits assumed): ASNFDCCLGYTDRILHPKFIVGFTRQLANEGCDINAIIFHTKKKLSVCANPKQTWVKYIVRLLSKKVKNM
T6 sequence (A0A090XBL6 20-118): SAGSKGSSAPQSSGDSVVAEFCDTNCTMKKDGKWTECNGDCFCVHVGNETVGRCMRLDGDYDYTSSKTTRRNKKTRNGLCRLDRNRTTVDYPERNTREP
Chain of CXCL12_HUMAN (P48061 22-89 limits assumed): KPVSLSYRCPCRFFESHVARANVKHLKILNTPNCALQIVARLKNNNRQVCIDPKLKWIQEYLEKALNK
Chain of CCL11_HUMAN (P51671 24-97 limits assumed): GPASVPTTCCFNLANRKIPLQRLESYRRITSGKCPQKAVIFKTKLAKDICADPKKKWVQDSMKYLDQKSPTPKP

B1: CXCL14_HUMAN (ligand)
chain: SKCKCSRKGPKIRYSDVKKLEMKPKYPHCEEKMVIITTKSVSRYRGQEHCLHPKLQSTKRFIKWYNAWNEKRRVYEE
binding result (P1096_IXORI [1]): no binding (tested: 300 nM)
binding result (P1168_IXORI [2]): no binding (tested: 300 nM)
binding result (P1095_IXORI [3]): no binding (tested: 300 nM)
binding result (P1132_IXORI [4]): no binding (tested: 300 nM)
binding result (P1134_IXORI [5]): no binding (tested: 300 nM)
binding result (P1080_IXORI [6]): no binding (tested: 300 nM)
binding result (P1127_IXORI [7]): no binding (tested: 300 nM)
binding result (P1156_IXORI [8]): no binding (tested: 300 nM)
binding result (P1166_IXORI [9]): no binding (tested: 300 nM)

B2: P993_AMBPA (other)
chain: HRHYDPNEPCLIAGLKTPRDALPAGCRYDCMIKKNQKLRDGLLCLDVPEKVVKRMVNYLNYSCPLGTCRKGICKRKHRNVRCQKYPVFYMSPPK
binding result (CCL17_HUMAN): binds
binding result (CCL5_HUMAN [10]): binds
binding result (CCL20_HUMAN): binds

B3: P974_AMBCA (other)
chain: ENTQQEEQDYDYGTDTCPFPVLANKTNKAKFVGCHQKCNGGDQKLTDGTACYVVERKVWDRMTPMLWYECPLGECKNGVCEDLRKKEDCRKGNGEEK
Kd (CCL16_HUMAN): 11 nM

B4: P546_AMBCA (other)
chain: B3 chain with Q8E, E69S, D88E
Kd (CCL16_HUMAN): 6.7 nM

B5: P1215_AMBPA (other)
chain: KTDTKNAAGELPPKVVIPGCEDPATTKAPLPDEPPYYGITIDKDGCQRKVLGSSQRQQRKVQNGRKLDGKKRGRRPVFVDLELTVDCKRKCNGTYSQLPDGENCLVSDGYPYGRWGTIKGGCYQGNCSSGQCHRGEKKVNCYLPKNITNDVPKSLNLAE
binding result (CCL11_HUMAN): binds
binding result (CCL18_HUMAN): binds
binding result (CCL5_HUMAN [11]): binds
binding result (CXCL12_HUMAN): binds

B6: P1252_AMBAM (other)
chain: RGGAASVPANASIPGCGDAQTTPAAPEDQPKHYVVYRDGNGCEVKIIGTWMTTEDYNCLPDTFRKNRAPHGKVKLPASCKKTCGNAVQNLKDGTPCRKVFGDLGRRRNLIKNGCLVGACQSGLCVSGNRTISCYIPPNSTDTRATPGSFAE
binding result (CXCL8_HUMAN): binds
binding result (CCL17_HUMAN): binds
binding result (CCL20_HUMAN): binds

B7: CXCL7_HUMAN (ligand)
chain: AELRCMCIKTTSGIHPKNIQSLEVIGKGTHCNQVEVIATLKDGRKICLDPDAPRIKKIVQKKLAGDESAD
binding result (P1096_IXORI [12]): no binding (tested: 300 nM)
binding result (P1174_IXORI): no binding (tested: 300 nM)
binding result (P1128_IXORI): no binding (tested: 300 nM)
binding result (P1168_IXORI [13]): no binding (tested: 300 nM)
binding result (P1172_IXORI): no binding (tested: 300 nM)
binding result (P1095_IXORI [14]): no binding (tested: 300 nM)
binding result (P1170_IXORI): no binding (tested: 300 nM)
binding result (P1132_IXORI [15]): no binding (tested: 300 nM)
binding result (P1162_IXORI): no binding (tested: 300 nM)
binding result (P1134_IXORI [16]): no binding (tested: 300 nM)
binding result (P1080_IXORI [17]): no binding (tested: 300 nM)
binding result (P1127_IXORI [18]): no binding (tested: 300 nM)
binding result (P1229_IXORI): no binding (tested: 300 nM)
binding result (P1166_IXORI [19]): no binding (tested: 300 nM)
binding result (P1156_IXORI [20]): no binding (tested: 300 nM)

B8: P1015_AMBCA (other)
chain: EEAPGPAPGCGEPEPTPPKPRRHGIVTNVNSCNSTILVWNGKEFPALCKVRCPHKSYRVSDFEPCLKFTNRRFLQERKDETPYKCKLGFCRHGTCITSEHSRKVPCKVPADRLDPSE
binding result (CXCL8_HUMAN): binds
binding result (CCL20_HUMAN): binds
